{
  "source": "paper doi:10.1101/765990",
  "about": "(bioRxiv, 2019)",
  "binders": {"B1": {"name": "Sed5p SNARE-motif (amino acids 211-320), wild type (domain or fragment)", "chain": "SLLDESSEKNNNSSNQGELSFPQNDSQLMLMEEGQLSNNVYLQERNRAVETIESTIQEVGNLFQQLASMVQEQGEVIQRIDANVDDIDLNISGAQRELLKYFDRIKSNRW"}},
  "biological_target": "T1, Sed5p Habc domain (amino acids 1-210) (budding yeast, UniProt Q01590 1-210)",
  "T1 sequence": "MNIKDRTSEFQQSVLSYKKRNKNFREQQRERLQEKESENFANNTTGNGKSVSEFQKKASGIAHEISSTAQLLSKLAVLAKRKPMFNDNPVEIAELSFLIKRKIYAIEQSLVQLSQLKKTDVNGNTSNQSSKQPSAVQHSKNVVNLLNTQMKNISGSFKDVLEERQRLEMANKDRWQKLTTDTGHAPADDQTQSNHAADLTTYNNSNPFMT",
  "test": "native gel or EMSA",
  "data": [
    {"binder": "B1", "values": [
      {"measurement": "binding result", "result": "binds"}
    ]}
  ]
}
